From patent US20130225434A1 (BOARD OF TRUSTEES OF THE UNIVERSITY OF ILLINOIS, published 2013)
Changes are numbered by the printed parent chain. Names and notes keep the numbering of the source. Square brackets hold non-standard residues; d marks the D form. * marks the point of attachment. Biotin = O=C1N[C@H]2[C@H](CS[C@H]2CCCCC(=O)*)N1; pY = N[C@@H](Cc1ccc(OP(=O)(O)O)cc1)C(=O)O; pT = C[C@@H](OP(=O)(O)O)[C@H](N)C(=O)O; pS = N[C@@H](COP(=O)(O)O)C(=O)O

T1: BRCT-pS (SMILES …)
T1 construct: also called Biotin-BRCT-pS
T1 peptide: Biotin-SGSAYDI[pS]QVFPFAKKK-NH2

T2: Rad9-pT peptide with SGS linker (SGS-SLEVpTEADATFYAKK) (yeast, SMILES …)
T2 construct: also called cognate pT peptide; Rad-pT
T2 peptide: Biotin-SGSSLEV[pT]EADATFYAKK-NH2

T3: WT FHA1 domain of S. cerevisiae Rad53, phage-displayed (protein III fusion on bacteriophage M13) (Saccharomyces cerevisiae; bacteriophage …, UniProt P22216 1-170)
T3 construct: not shown: minor coat protein III (pIII, gene III product) of bacteriophage M13
T3 sequence: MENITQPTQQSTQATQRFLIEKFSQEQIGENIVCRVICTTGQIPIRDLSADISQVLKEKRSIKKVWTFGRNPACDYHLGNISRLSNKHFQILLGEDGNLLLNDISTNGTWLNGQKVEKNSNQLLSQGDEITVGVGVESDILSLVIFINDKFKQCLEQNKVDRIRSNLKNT

B1: C12 variant of the FHA1 domain, phage-displayed (designed binder, not shown: small tags and cut ends)
chain: T3 sequence with C34S, C38S, W66R, C154S
notes: From the library built on the 3C-3S template
B2: A7 variant of the FHA1 domain, phage-displayed (designed binder, not shown: small tags and cut ends)
chain: T3 sequence with C34S, C38S, N121Y, C154S
notes: as for B1
B3: G9 variant of the FHA1 domain, phage-displayed (designed binder, not shown: large carriers; small tags and cut ends)
chain: T3 sequence with Q13R, C34S, C38S, I104V, N121Y, C154S, R164S
notes: as for B1
B4: A10 variant of the FHA1 domain, phage-displayed (designed binder, not shown: small tags and cut ends)
chain: T3 sequence with Q25H, C34S, C38S, N121Y, S142R, C154S
notes: as for B1
B5: C (designed binder)
FHA1 domain displayed on M13 protein III: T3 sequence with C38S, C154S
notes: also called S34C
B6: H (designed binder)
FHA1 domain displayed on M13 protein III: T3 sequence with C34H, C38S, C154S
notes: also called S34H
B7: Q (designed binder)
FHA1 domain displayed on M13 protein III: T3 sequence with C34Q, C38S, C154S
notes: also called S34Q
B8: E (designed binder)
FHA1 domain displayed on M13 protein III: T3 sequence with C34E, C38S, C154S
notes: also called S34E
B9: N (designed binder)
FHA1 domain displayed on M13 protein III: T3 sequence with C34N, C38S, C154S
notes: also called S34N
B10: G (designed binder)
FHA1 domain displayed on M13 protein III: T3 sequence with C34G, C38S, C154S
notes: also called S34G
B11: D (designed binder)
FHA1 domain displayed on M13 protein III: T3 sequence with C34D, C38S, C154S
notes: also called S34D
B12: R (designed binder)
FHA1 domain displayed on M13 protein III: T3 sequence with C34R, C38S, C154S
notes: also called S34R
B13: T (designed binder)
FHA1 domain displayed on M13 protein III: T3 sequence with C34T, C38S, C154S
notes: also called S34T
B14: K (designed binder)
FHA1 domain displayed on M13 protein III: T3 sequence with C34K, C38S, C154S
notes: also called S34K
B15: P (designed binder)
FHA1 domain displayed on M13 protein III: T3 sequence with C34P, C38S, C154S
notes: also called S34P
B16: Plk1-pT (peptide)
peptide: Biotin-SGSAGPMQS[pT]PLNGAKK-NH2
SMILES: CSCC[C@H](NC(=O)[C@@H]1CCCN1C(=O)CNC(=O)[C@H](C)NC(=O)[C@H](CO)NC(=O)CNC(=O)[C@H](CO)NC(=O)CCCC[C@@H]1SC[C@@H]2NC(=O)N[C@@H]21)C(=O)N[C@@H](CCC(N)=O)C(=O)N[C@@H](CO)C(=O)N[C@H](C(=O)N1CCC[C@H]1C(=O)N[C@@H](CC(C)C)C(=O)N[C@@H](CC(N)=O)C(=O)NCC(=O)N[C@@H](C)C(=O)N[C@@H](CCCCN)C(=O)N[C@@H](CCCCN)C(N)=O)[C@@H](C)OP(=O)(O)O
B17: Rad9-pS (peptide)
peptide: Biotin-SGSSLEV[pS]EADATFYAKK-NH2
SMILES: CC(C)C[C@H](NC(=O)[C@H](CO)NC(=O)[C@H](CO)NC(=O)CNC(=O)[C@H](CO)NC(=O)CCCC[C@@H]1SC[C@@H]2NC(=O)N[C@@H]21)C(=O)N[C@@H](CCC(=O)O)C(=O)N[C@H](C(=O)N[C@@H](COP(=O)(O)O)C(=O)N[C@@H](CCC(=O)O)C(=O)N[C@@H](C)C(=O)N[C@@H](CC(=O)O)C(=O)N[C@@H](C)C(=O)N[C@H](C(=O)N[C@@H](Cc1ccccc1)C(=O)N[C@@H](Cc1ccc(O)cc1)C(=O)N[C@@H](C)C(=O)N[C@@H](CCCCN)C(=O)N[C@@H](CCCCN)C(N)=O)[C@@H](C)O)C(C)C
B18: Rad9-pY (peptide)
peptide: Biotin-SGSSLEV[pY]EADATFYAKK-NH2
SMILES: CC(C)C[C@H](NC(=O)[C@H](CO)NC(=O)[C@H](CO)NC(=O)CNC(=O)[C@H](CO)NC(=O)CCCC[C@@H]1SC[C@@H]2NC(=O)N[C@@H]21)C(=O)N[C@@H](CCC(=O)O)C(=O)N[C@H](C(=O)N[C@@H](Cc1ccc(OP(=O)(O)O)cc1)C(=O)N[C@@H](CCC(=O)O)C(=O)N[C@@H](C)C(=O)N[C@@H](CC(=O)O)C(=O)N[C@@H](C)C(=O)N[C@H](C(=O)N[C@@H](Cc1ccccc1)C(=O)N[C@@H](Cc1ccc(O)cc1)C(=O)N[C@@H](C)C(=O)N[C@@H](CCCCN)C(=O)N[C@@H](CCCCN)C(N)=O)[C@@H](C)O)C(C)C
B19: 3C-3S variant of the FHA1 domain, GST fusion (other)
chain: T3 sequence with C34S, C38S, C154S
notes: Cell lysate used in the ELISA; not shown: The N-terminal GST of the pGEX-2T vector and the vector junction residues
B20: 4C-4S variant of the FHA1 domain, GST fusion (other)
chain: T3 sequence with C34S, C38S, C74S, C154S
notes: as for B19
B21: D2 variant of the FHA1 domain, GST fusion (designed binder)
chain: T3 sequence with C34F, C38S, C154S
notes: as for B19

Target: T1, BRCT-pS
Experiment: phage ELISA; biotinylated peptide on Neutravidin, A405
Description: FIG. 9A is a photograph of 96-well plates containing phage supernatants from 96 individual clones, which were isolated after three rounds of selection, heated (50° C.), cooled, and added to microtiter plate wells coated with the phosphopeptide ligand. Binding of phage particles in the wells was monitored with an anti-M13 antibody conjugated to HRP. FIG. 9B is a graph showing the ratio of the ELISA signals for individual phage clones generated with wells contained with the target protein compared to a negative control protein (background).
Phage particles produced from 96 clones isolated after round #3, were heated at 50° C. for 3 hr and cooled to RT. The phage supernatants were then incubated with both the target peptide (500 ng/well) immobilized on NeutrAvidin (1 μg/well) coated plate wells and an unrelated target (background). Binding phage clones were detected using anti-M13 antibody conjugated to HRP (GE Healthcare). The green, colored product of the enzymatic reaction in the microtiter plate wells was measured at 405 nm using the FLUOstar OPTIMA plate reader (BMG Labtech). […] In some cases, the signal over background ratio ranged from 3 to 20 for clones (FIG. 9B).

Row | Binder | binding result
1 | B1 | no binding
2 | B2 | no binding
3 | B3 | no binding
4 | B4 | no binding

Target: T2, Rad9-pT peptide with SGS linker …
Experiment: phage ELISA on immobilized Rad9-pT, phage normalised to the Flag epitope; anti-M13-HRP, A405
Excerpt: Through Kunkel mutagenesis (Yaffe (2002) Nat Rev Mol Cell Bol 3, 177-86), the amino acid residue at position 34 in the β1 strand of the D2 FHA 1 domain was replaced (from the naturally-occurring V) one at a time with each of the other naturally occurring amino acids and binding to the immobilized Rad9-pT peptide was monitored by phage ELISA. Phage binding was detected using anti-M13 antibody conjugated to Horse Radish Peroxidase (HRP). […] All the variants display an N-terminal Flag peptide and the amount of phage particles used for each variant in this experiment has been normalized for this epitope.
To amplify the phage particles displaying the recombinant FHA1 variants, TG1 bacterial cells (5 mL; Stratagene) harboring the phagemid DNA were infected at mid-log (OD₆₀₀ₙₘ=0.5-0.6) with M13K07 helper phage (New England Biolabs) at a multiplicity of infection (MOI) of 20 for 1 h at 37° C. at 150 rpm. Infected cells were centrifuged, and the pellet was resuspended in fresh Luria Bertani medium (LB: 10 g Tryptone, 5 g Yeast extract, and 10 g NaCl per liter) supplemented with 50 μg/mL carbenicillin and 50 μg/ml kanamycin, and phage were amplified overnight at 30° C. at 250 rpm. All of the phage ELISA steps were performed at room temperature. Biotinylated peptides (100 μL, 5 μg/mL) were immobilized on Nunc MaxiSorp flat-bottom 96 well plates (Thermo Fisher Scientific) via NeutrAvidin™ Biotin binding protein (100 μL, 10 μg/mL; Thermo Fisher Scientific) and blocked with 2% skim milk in 1×PBS (200 μL per well).

Row | Binder | binding result
5 | B5 | no binding
6 | B6 | no binding
7 | B7 | no binding
8 | B8 | no binding
9 | B9 | no binding
10 | B10 | no binding
11 | B11 | no binding
12 | B12 | no binding
13 | B13 | no binding
14 | B14 | no binding
15 | B15 | no binding

Target: T3, WT FHA1 domain of S. cerevisiae Rad53, …
Experiment: phage ELISA; biotinylated peptide on Neutravidin; anti-M13-HRP, A405 [a]
Excerpt: Binding of phage particles was detected using anti-M13 antibody conjugated to HRP. FIG. 4(b) is a graph of the results of ELISA experiments of GST fusions of the WT FHA1 domain and three of its variants, 3C-3S, 4C-4S, and D2, that bound specifically to the cognate pT peptide (Rad9-pT; shown as solid histograms) immobilized on plastic microtiter plate wells via Neutravidin. Binding was detected using anti-GST antibody conjugated to HRP. The peptide sequences for Rad9-pT, Rad9-T, Rad9-pS, Rad9-pY, Plk1-pT and BRCT-pS are SGSSLEVp[…] (SEQ ID NO: 1), […] (SEQ ID NO: 2), SGSSLEVp[…] (SEQ ID NO: 3), SGSSLEVp[…] (SEQ ID NO: 4), […]p[…] (SEQ ID NO: 5) and SGSAYDIp[…] (SEQ ID NO: 6), respectively. The peptide sequence for the WT FHA1 domain from S. cerevisiae Rad53 protein kinase includes […] (SEQ ID NO:7), which includes residues 1-170 of S. cerevisiae Rad53 (SEQ ID NO:8) (Liao et al. (2000) J. Mol. Biol 304, 941-51; Durocher et al. (1999) Mol Cell 4). […] The β-strands are labeled from 1 to 11 in the WT FHA1 domain structure and the N- and C-termini are noted.

Row | Binder | binding result
16 | B16 | no binding
17 | B17 | no binding
18 | B18 | no binding

Target: T1, BRCT-pS
Experiment: ELISA with GST fusion (cell lysate); biotinylated peptide on Neutravidin; anti-GST-HRP, A405 [b]

Row | Binder | binding result
19 | B19 | no binding
20 | B20 | no binding
21 | B21 | no binding
